Laboratory results published in patent US20200306375A1 (ALETA BIOTHERAPEUTICS, published 2020).

Molecular target: T1, FMC63 CAR-Flag (construct #140)
T1 construct: also called CAR19; CD19 CAR construct
Experiment: flow cytometry on 293T cells transfected with construct #140; anti-mouse Fc gamma-PE detection
Protocol: Cells transfected with construct #140 (SEQ ID NO: 317) (2.5×10\hat{ }5 in 50 ul) were incubated with 50 u1 sup or purified (5 ug/ml as final conc.) protein of constructs#151/#152 (SEQ ID NO: 319/ SEQ ID NO: 320) for 30 min at 4° C., spun and washed twice with FACS buffer. This was followed by another incubation with anti-mouse Fc gamma-PE for 30 min at 4° C. Cells were spun and washed as above, and fixed with 1% PFA in PBS. Fixed cells were analyzed on Accuri 6 for CAR expression binding (PE positive).

T1 sequence (chain, as listed by the source): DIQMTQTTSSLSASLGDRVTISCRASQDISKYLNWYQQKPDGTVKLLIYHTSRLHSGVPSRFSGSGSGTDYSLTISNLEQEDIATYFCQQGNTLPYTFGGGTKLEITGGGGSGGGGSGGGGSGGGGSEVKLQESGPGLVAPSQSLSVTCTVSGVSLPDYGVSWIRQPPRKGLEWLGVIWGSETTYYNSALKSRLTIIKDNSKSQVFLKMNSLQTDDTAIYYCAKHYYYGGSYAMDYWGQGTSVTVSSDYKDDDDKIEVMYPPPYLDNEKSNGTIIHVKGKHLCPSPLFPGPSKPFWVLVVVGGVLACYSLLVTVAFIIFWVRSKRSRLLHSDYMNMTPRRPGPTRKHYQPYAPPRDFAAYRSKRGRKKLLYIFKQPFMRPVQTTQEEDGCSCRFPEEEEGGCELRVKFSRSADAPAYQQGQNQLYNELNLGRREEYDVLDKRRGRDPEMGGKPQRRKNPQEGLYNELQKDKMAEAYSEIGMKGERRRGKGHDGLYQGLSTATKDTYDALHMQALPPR

binding result: binds
B1: anti-FMC63 antibody, 136.20.1 (antibody, mouse IgG2a, kappa, V domains shown)
VH: EVKLVESGGGLVQPGGSLKLSCAASGFDFSRYWMSWVRQAPGKGLEWIGEINLDSSTINYTPSLKDKFIISRDNAKNTLYLQMSKVRSEDTALYYCARRYDAMDYWGQGTSVTVSS
VL: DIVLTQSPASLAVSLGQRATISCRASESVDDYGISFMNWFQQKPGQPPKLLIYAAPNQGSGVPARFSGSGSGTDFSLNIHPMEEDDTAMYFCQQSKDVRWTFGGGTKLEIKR
notes: also called anti-FMC63 (anti-Id) antibody; constructs #151/#152
